Measurements taken from patent publication US10087225B2, “Formulation of MK2 inhibitor peptides” (MOERAE MATRIX, INC., priority 2015, dated 2018).

Tests used:
HCAVSMCs = test: Cytosolic vs. organelle bound peptide by digitonin semi-permeabilization; type: cell-based, human; conditions: Bafilomycin treatment
Procedure: In order to quantify the cytosolic bioavailability of the MK2i and HSP20 peptides a method to separate cytosolic and organelle bound (i.e. endosomal, lysosomal, golgi, etc.) peptide was adapted from the methods developed by Liu et a140. The procedure was optimized for this experiment based upon LDH release from HCAVSMCs treated with varying concentrations of digitonin (Calbiochem) in buffer (150 mM NaCl, 0.2 mM EDTA, 20 mM HEPES-NaOH (pH 7.4), 2 mM DTT and 2 mM MgCL2) on ice for 10 mins on a rotary shaker operating at 100 RPM (supplementary FIG. 3). A concentration of 25 μg/mL was then chosen as the optimal digitonin concentration for selective semi-permeabilization of the HCAVSMC membrane and subsequently used for the analysis of intracellular peptide distribution.
To quantify intracellular distribution of the MK2i and p-HSP20 peptides, HCAVSMCs were seeded into a 96 well plate at a density of 20,000 cells/cm2 and allowed to adhere overnight in complete growth medium. A portion of the cells were pretreated with 500 nM Bafilomycin A1 (Sigma) for 30 minutes, and the Bafilomycin was included in subsequent peptide/NP treatment and in the post-treatment incubation phase to inhibit endosomal acidification. […] Treatments were removed and cells were incubated in fresh medium with or without 500 nM Bafilomycin A1 for 6 hours. […]

eEF-2K(h) = eEF-2K(h) (Homo sapiens, UniProt O00418); test: Kinase Profiling Assay; type: biochemical; conditions: 100 μM
Hck(h) = Hck(h) (Homo sapiens, UniProt P08631); test: Kinase Profiling Assay; type: biochemical; conditions: 100 μM
Hck(h), sequence (P08631 whole entry): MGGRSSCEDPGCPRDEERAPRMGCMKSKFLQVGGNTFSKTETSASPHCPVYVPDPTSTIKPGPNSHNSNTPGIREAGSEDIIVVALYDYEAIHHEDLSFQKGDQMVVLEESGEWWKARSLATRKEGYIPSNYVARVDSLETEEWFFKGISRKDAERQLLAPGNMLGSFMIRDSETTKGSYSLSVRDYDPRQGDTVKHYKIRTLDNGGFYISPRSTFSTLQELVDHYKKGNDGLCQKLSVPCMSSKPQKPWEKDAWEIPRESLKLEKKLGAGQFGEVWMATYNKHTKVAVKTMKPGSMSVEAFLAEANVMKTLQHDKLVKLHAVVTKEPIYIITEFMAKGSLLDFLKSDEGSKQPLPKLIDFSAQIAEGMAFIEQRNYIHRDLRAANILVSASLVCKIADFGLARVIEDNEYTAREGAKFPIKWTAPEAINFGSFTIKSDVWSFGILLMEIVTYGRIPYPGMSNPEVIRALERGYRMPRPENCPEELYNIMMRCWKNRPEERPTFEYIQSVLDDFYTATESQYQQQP

EphA1(h) = target: T1, EphA1(h) (Homo sapiens, UniProt P21709); test: Kinase Profiling Assay; type: biochemical; conditions: 100 μM
T1 sequence (P21709 26-976): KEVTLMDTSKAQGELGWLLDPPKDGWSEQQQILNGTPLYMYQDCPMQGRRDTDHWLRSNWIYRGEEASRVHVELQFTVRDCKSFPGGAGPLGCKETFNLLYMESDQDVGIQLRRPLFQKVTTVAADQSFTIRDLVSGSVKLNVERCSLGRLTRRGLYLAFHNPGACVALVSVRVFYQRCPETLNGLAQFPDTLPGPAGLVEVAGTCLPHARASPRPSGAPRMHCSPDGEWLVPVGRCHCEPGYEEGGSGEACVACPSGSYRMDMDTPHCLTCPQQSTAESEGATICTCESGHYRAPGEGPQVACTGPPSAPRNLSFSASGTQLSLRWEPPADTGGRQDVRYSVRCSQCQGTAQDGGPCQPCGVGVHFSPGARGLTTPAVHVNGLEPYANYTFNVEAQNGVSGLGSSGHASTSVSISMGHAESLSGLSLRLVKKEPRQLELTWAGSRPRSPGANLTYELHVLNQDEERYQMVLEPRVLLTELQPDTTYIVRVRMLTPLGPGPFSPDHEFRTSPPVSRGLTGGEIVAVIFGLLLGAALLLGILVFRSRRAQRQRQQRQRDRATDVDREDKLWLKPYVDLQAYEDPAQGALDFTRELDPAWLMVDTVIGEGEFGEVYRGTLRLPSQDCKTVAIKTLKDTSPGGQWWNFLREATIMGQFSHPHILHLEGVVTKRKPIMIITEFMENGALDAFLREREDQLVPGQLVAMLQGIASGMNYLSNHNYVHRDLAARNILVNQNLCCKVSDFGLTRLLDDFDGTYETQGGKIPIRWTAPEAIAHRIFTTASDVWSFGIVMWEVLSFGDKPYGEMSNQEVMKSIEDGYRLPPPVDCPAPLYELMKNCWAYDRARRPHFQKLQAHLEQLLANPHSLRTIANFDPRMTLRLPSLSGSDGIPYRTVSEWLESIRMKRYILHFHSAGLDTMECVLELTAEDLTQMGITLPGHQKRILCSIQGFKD

CDK9/cyclin T1(h) = CDK9/cyclin T1(h) (Homo sapiens, UniProt P50750); test: Kinase Profiling Assay; type: biochemical; conditions: 100 μM
CDK9/cyclin T1(h), sequence (P50750 whole entry): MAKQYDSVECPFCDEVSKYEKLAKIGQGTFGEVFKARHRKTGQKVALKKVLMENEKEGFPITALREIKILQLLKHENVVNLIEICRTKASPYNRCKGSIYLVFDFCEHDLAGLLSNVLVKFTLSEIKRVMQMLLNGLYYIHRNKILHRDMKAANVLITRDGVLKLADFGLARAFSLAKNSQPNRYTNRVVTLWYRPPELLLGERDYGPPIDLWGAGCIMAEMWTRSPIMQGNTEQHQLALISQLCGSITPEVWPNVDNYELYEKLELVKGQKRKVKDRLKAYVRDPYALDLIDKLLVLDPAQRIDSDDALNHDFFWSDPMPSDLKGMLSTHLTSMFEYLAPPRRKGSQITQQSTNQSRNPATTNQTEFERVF
CDK9/cyclin T1(h), sequence (O60563 whole entry partner): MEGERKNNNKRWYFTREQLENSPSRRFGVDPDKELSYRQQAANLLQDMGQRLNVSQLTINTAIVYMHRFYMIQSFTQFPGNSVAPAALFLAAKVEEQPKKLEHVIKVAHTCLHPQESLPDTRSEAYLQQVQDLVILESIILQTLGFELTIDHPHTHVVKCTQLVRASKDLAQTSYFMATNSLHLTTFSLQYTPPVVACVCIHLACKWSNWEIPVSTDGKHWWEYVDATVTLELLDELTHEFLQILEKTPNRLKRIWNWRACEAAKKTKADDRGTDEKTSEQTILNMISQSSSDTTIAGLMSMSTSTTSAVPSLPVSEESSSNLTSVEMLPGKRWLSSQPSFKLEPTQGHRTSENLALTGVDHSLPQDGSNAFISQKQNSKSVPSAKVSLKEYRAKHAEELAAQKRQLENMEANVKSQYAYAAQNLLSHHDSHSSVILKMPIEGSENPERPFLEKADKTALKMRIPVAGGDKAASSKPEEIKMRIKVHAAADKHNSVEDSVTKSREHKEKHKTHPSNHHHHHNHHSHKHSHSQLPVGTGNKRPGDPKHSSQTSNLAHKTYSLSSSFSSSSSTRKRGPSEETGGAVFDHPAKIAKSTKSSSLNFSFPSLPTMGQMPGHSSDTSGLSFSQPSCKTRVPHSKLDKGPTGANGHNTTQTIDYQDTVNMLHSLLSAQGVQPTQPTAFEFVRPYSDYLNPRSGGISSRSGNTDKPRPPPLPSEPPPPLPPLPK

HIPK3(h) = HIPK3(h) (Homo sapiens, UniProt Q9H422); test: Kinase Profiling Assay; type: biochemical; conditions: 100 μM
HIPK3(h), sequence (Q9H422 whole entry): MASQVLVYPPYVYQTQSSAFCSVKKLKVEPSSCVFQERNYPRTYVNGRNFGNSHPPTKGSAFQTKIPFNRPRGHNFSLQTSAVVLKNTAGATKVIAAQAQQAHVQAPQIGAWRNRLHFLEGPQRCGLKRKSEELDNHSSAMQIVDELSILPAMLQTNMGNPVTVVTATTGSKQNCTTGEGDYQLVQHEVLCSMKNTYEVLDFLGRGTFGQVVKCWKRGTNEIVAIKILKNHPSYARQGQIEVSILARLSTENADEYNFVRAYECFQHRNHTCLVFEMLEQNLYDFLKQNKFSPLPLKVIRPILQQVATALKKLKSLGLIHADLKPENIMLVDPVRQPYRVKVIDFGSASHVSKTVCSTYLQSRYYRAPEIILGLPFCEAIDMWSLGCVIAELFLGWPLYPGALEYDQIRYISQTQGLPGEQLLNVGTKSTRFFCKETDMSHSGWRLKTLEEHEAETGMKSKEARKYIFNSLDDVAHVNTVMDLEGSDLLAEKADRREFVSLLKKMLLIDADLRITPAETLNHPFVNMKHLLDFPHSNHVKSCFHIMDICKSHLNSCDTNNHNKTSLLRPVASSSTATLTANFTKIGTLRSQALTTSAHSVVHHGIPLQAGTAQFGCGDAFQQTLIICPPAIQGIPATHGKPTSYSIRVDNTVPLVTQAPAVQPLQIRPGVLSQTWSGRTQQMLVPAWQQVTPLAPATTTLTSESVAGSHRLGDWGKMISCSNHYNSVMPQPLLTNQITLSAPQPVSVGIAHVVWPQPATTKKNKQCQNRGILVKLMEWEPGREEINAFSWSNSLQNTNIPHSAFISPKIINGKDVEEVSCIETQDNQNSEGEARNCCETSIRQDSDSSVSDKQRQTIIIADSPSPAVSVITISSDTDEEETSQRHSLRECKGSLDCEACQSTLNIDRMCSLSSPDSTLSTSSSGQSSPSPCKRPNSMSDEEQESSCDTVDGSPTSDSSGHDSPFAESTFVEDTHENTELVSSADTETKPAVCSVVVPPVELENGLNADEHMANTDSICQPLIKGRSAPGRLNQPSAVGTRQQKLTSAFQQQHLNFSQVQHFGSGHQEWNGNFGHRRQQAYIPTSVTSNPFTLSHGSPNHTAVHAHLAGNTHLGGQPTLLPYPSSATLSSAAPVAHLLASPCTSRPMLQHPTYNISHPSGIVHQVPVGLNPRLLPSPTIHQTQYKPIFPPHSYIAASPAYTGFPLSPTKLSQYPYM

Ab1(h) = Ab1(h) (Homo sapiens, UniProt P00519); test: Kinase Profiling Assay; type: biochemical; conditions: 100 μM
Ab1(h), sequence (P00519 whole entry): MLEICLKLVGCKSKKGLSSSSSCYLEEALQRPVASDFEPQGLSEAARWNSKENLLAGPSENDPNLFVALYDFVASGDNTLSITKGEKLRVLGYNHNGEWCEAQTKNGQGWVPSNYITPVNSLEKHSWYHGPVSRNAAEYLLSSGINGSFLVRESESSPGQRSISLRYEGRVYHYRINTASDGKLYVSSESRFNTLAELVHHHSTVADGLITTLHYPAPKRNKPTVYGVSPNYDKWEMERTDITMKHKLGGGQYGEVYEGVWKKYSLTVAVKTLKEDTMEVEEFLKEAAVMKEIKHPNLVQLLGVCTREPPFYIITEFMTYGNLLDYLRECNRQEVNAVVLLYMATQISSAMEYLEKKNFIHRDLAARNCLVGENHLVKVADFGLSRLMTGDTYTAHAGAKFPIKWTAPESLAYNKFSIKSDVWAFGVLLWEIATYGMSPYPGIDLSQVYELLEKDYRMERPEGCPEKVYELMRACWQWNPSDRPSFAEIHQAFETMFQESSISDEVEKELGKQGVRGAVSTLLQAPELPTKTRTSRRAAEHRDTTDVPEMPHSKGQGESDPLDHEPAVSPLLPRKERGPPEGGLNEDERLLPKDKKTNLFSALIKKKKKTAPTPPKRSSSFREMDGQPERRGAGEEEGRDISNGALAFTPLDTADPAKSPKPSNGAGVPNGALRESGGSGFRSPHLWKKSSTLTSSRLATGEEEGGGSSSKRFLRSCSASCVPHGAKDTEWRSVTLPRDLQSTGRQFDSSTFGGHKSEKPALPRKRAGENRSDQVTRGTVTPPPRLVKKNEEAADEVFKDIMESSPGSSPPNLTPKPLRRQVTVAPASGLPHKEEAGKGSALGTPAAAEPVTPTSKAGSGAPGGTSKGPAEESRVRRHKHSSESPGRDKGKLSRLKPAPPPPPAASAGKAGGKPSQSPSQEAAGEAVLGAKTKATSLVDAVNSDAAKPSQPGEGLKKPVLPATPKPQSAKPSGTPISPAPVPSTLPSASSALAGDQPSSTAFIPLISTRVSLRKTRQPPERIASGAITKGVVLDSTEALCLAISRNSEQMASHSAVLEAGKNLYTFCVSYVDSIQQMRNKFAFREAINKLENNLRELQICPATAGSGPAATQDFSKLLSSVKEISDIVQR

JNK2α2(h) = JNK2α2(h) (Homo sapiens, UniProt P45984); test: Kinase Profiling Assay; type: biochemical; conditions: 100 μM
SAPK2a(h) = SAPK2a(h) (Homo sapiens, UniProt Q16539); test: Kinase Profiling Assay; type: biochemical; conditions: 100 μM
Plk1(h) = Plk1(h) (Homo sapiens, UniProt P53350); test: Kinase Profiling Assay; type: biochemical; conditions: 100 μM
Plk1(h), sequence (P53350 whole entry): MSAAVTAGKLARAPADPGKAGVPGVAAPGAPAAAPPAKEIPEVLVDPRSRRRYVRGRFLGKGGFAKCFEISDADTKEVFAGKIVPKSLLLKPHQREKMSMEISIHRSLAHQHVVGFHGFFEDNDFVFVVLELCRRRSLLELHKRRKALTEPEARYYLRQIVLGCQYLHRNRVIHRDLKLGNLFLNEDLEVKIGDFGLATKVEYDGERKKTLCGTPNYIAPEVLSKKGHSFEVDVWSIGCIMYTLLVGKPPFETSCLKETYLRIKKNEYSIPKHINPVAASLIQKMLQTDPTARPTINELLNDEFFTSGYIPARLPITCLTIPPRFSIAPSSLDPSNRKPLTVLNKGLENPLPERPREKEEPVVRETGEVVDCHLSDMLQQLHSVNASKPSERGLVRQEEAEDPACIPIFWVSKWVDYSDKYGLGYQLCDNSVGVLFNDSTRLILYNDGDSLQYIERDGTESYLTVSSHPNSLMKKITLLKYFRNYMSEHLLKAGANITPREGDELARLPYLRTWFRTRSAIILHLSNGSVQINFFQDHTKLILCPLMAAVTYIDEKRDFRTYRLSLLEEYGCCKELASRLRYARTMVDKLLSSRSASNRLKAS

CK2α2(h) = CK2α2(h) (Homo sapiens, UniProt P19784); test: Kinase Profiling Assay; type: biochemical; conditions: 100 μM
CK2α2(h), sequence (P19784 whole entry): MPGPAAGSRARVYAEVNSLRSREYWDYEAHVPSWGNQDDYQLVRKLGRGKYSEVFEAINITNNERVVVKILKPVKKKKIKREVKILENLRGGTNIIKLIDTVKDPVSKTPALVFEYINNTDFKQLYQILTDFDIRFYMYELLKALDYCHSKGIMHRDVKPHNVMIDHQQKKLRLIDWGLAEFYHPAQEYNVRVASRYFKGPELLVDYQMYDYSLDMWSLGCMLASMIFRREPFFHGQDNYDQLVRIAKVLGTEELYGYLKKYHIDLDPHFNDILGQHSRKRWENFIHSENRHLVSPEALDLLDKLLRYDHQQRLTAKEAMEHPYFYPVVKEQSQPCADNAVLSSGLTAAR

H-YARAAARQARAKALARQLGVAA-OH [MMI-0100]
cytosolic fraction of internalized free peptide (HCAVSMCs): 9.64%±8.17%

HRRIKAWLKKIKALARQLGVAA (Mammalian) [MMI-0500]
% activity (eEF-2K(h)): 43% | % activity (Hck(h)): 78% | % activity (EphA1(h)): 40% | % activity (CDK9/cyclin T1(h)): 6% | % activity (HIPK3(h)): 85% | % activity (Ab1(h)): 16% | % activity (JNK2α2(h)): 81% | % activity (SAPK2a(h)): 52%

YARAAARQARAKALNRQLGVA (Mammalian) [MMI-0200]
% activity (Plk1(h)): 128% | % activity (CK2α2(h)): 88%
